Our source for the peptide exchange yield values is US20160250307A1 (IMMATICS BIOTECHNOLOGIES, published 2016).

For the test, the target named is HLA-A*02 (human). Briefly: UV-ligand exchange, anti-b2m ELISA; grade: exchange yield >=50%. (In an ELISA, binding on a coated surface is turned into a signal by an enzyme label.)

B1: ALSSKPAEV (peptide)
peptide: ALSSKPAEV
As for B1, the peptide exchange yield is 50 to 75%.

B2: SMGDHLWVA (peptide)
peptide: SMGDHLWVA
Regarding B2, the peptide exchange yield fell in the range of 50 to 75%.

B3: VVLDDKDYFL (peptide)
peptide: VVLDDKDYFL
With B3, the peptide exchange yield fell in the range of 50 to 75%.

B4: RLFEENDVNL (peptide)
peptide: RLFEENDVNL
Consider B4, for which the peptide exchange yield lay within 50 to 75%.

B5: SLLSPEHLQYL (peptide)
peptide: SLLSPEHLQYL
Consider B5, for which the peptide exchange yield fell in the range of 50 to 75%.

B6: ALLGKIEKV (peptide)
peptide: ALLGKIEKV
For the molecule B6, the peptide exchange yield was 50 to 75%.

B7: TLLKKISEA (peptide)
peptide: TLLKKISEA
As for B7, the peptide exchange yield lay in the range of 50 to 75%.

B8: KLSEAVTSV (peptide)
peptide: KLSEAVTSV
B8 displayed a peptide exchange yield of 50 to 75%.

B9: YLWDLDHGFAGV (peptide)
peptide: YLWDLDHGFAGV
On to B9, for which the peptide exchange yield was 50 to 75%.

B10: HLAKVTAEV (peptide)
peptide: HLAKVTAEV
In the case of B10, the peptide exchange yield was in the range of 50 to 75%.

B11: QLTPVLVSV (peptide)
peptide: QLTPVLVSV
B11 returned a peptide exchange yield of 50 to 75%.

B12: RLPDIPLRQV (peptide)
peptide: RLPDIPLRQV
As for B12, the peptide exchange yield fell in the range of 50 to 75%.

B13: TLYALSHAV (peptide)
peptide: TLYALSHAV
B13: the peptide exchange yield lay within 50 to 75%.

B14: SLWSVARGV (peptide)
peptide: SLWSVARGV
The molecule B14 displayed a peptide exchange yield of 50 to 75%.

B15: SICNGVPMV (peptide)
peptide: SICNGVPMV
In the case of B15, the peptide exchange yield lay in the range of 50 to 75%.

B16: RILPKVLEV (peptide)
peptide: RILPKVLEV
As for B16, the peptide exchange yield lay in the range of 50 to 75%.

B17: SQADVIPAV (peptide)
peptide: SQADVIPAV
Consider B17, for which the peptide exchange yield was 50 to 75%.

B18: NLASFIEQVAV (peptide)
peptide: NLASFIEQVAV
Turning to B18, the peptide exchange yield lay within 50 to 75%.

B19: GLAPGGLAVV (peptide)
peptide: GLAPGGLAVV
The molecule B19 gave a peptide exchange yield of 50 to 75%.

B20: RMSDVVKGV (peptide)
peptide: RMSDVVKGV
The molecule B20 gave a peptide exchange yield of 50 to 75%.

B21: YLDDEKNWGL (peptide)
peptide: YLDDEKNWGL
In the case of B21, the peptide exchange yield was in the range of 50 to 75%.

B22: KLDNNLDSV (peptide)
peptide: KLDNNLDSV
Molecule B22 showed a peptide exchange yield of 50 to 75%.

B23: RLFPDGIVTV (peptide)
peptide: RLFPDGIVTV
B23: the peptide exchange yield lay within 50 to 75%.

B24: VLSQVYSKV (peptide)
peptide: VLSQVYSKV
Molecule B24 returned a peptide exchange yield of 50 to 75%.

B25: KLYDLELIV (peptide)
peptide: KLYDLELIV
On to B25, for which the peptide exchange yield lay within 50 to 75%.

B26: ALLEMDARL (peptide)
peptide: ALLEMDARL
Consider B26, for which the peptide exchange yield lay within 50 to 75%.

B27: RLLDEQFAV (peptide)
peptide: RLLDEQFAV
B27 returned a peptide exchange yield of 50 to 75%.

B28: YLITGNLEKL (peptide)
peptide: YLITGNLEKL
Molecule B28 yielded a peptide exchange yield of 50 to 75%.

B29: SILDIVTKV (peptide)
peptide: SILDIVTKV
B29: the peptide exchange yield was in the range of 50 to 75%.

B30: SLWEGGVRGV (peptide)
peptide: SLWEGGVRGV
The molecule B30 returned a peptide exchange yield of 50 to 75%.

B31: RLAAFYSQV (peptide)
peptide: RLAAFYSQV
B31 gave a peptide exchange yield of 50 to 75%.

B32: NVFDGLVRV (peptide)
peptide: NVFDGLVRV
As for B32, the peptide exchange yield is 50 to 75%.

B33: RLLDVLAPLV (peptide)
peptide: RLLDVLAPLV
For B33, the peptide exchange yield lay in the range of 50 to 75%.

B34: RLPPDTLLQQV (peptide)
peptide: RLPPDTLLQQV
Regarding B34, the peptide exchange yield was in the range of 50 to 75%.

B35: YLDKNLTVSV (peptide)
peptide: YLDKNLTVSV
The molecule B35 showed a peptide exchange yield of 50 to 75%.

B36: RLTESVLYL (peptide)
peptide: RLTESVLYL
B36 came in with a peptide exchange yield of 50 to 75%.

B37: KLTDHLKYV (peptide)
peptide: KLTDHLKYV
B37 yielded a peptide exchange yield of 50 to 75%.

B38: TVMDIDTSGTFNV (peptide)
peptide: TVMDIDTSGTFNV
In turn, B38 came in with a peptide exchange yield of 50 to 75%.

B39: TLLDSPIKV (peptide)
peptide: TLLDSPIKV
For the molecule B39, the peptide exchange yield fell in the range of 50 to 75%.

B40: LLHEENFSV (peptide)
peptide: LLHEENFSV
For B40, the peptide exchange yield fell in the range of 50 to 75%.

B41: ALLNQHYQV (peptide)
peptide: ALLNQHYQV
B41 gave a peptide exchange yield of 50 to 75%.

B42: ALHEEVVGV (peptide)
peptide: ALHEEVVGV
For the molecule B42, the peptide exchange yield lay within 50 to 75%.

B43: LLIDDEYKV (peptide)
peptide: LLIDDEYKV
As for B43, the peptide exchange yield lay within 50 to 75%.

B44: TLAAIIHGA (peptide)
peptide: TLAAIIHGA
In the case of B44, the peptide exchange yield lay in the range of 50 to 75%.

B45: YAFPKSITV (peptide)
peptide: YAFPKSITV
On to B45, for which the peptide exchange yield was in the range of 50 to 75%.

B46: QLLPNLRAV (peptide)
peptide: QLLPNLRAV
The molecule B46 registered a peptide exchange yield of 50 to 75%.

B47: LLADIGGDPFAA (peptide)
peptide: LLADIGGDPFAA
B47 gave a peptide exchange yield of 50 to 75%.

B48: RMLIKLLEV (peptide)
peptide: RMLIKLLEV
The molecule B48 yielded a peptide exchange yield of 50 to 75%.

B49: SVWFGPKEV (peptide)
peptide: SVWFGPKEV
B49 gave a peptide exchange yield of 50 to 75%.
